Biological target: Kapβ2 Δloop (human) (UniProt Q92973)
Test: AUC

Chain of Kapβ2 Δloop (human) (Q92973 9-898, stated change not applied): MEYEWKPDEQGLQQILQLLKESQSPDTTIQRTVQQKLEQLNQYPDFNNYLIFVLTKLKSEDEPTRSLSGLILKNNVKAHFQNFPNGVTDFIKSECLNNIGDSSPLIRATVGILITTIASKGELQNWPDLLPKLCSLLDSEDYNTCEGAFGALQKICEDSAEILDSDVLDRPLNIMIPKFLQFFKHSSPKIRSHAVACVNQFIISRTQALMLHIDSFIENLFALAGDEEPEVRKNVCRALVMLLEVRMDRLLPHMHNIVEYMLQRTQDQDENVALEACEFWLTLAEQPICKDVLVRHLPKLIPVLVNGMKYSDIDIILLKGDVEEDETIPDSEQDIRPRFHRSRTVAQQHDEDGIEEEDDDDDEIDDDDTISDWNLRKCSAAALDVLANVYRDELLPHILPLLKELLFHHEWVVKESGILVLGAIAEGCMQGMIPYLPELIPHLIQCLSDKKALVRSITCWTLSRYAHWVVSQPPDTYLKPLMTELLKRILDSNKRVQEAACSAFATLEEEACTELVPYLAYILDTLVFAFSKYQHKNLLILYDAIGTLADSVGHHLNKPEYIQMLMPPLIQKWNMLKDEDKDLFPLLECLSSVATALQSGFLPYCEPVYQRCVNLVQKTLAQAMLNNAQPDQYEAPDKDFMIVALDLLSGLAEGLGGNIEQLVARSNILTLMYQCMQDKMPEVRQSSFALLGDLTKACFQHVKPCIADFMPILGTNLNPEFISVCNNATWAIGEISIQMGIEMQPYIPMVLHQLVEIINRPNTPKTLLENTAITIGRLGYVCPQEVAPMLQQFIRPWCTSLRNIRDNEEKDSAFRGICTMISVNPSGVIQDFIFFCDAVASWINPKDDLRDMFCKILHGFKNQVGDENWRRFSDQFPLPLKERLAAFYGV

**Q.** PRPRPRPRPRPRPRPRPRPRPRPRPRPRPRPRPRPR [maltose-binding protein (MBP)-PR18] was tested. Which stoichiometry N did it give?
**A.** 1

Source: doi:10.1101/2024.07.03.601791
